From article PMC11840924, “Identifying Allosteric Hotspots in Mycobacterium tuberculosis cAMP Receptor Protein through Structural Homology” (Biochemistry, 2025) come the findings set out here.

Positions count from the first letter of the chain named. In names and notes the source's numbering stands.

For data set [1], the target named is T1, CRPMTB A61H (Mycobacterium tuberculosis, UniProt P9WMH3 1-224, A61H).
T1 sequence: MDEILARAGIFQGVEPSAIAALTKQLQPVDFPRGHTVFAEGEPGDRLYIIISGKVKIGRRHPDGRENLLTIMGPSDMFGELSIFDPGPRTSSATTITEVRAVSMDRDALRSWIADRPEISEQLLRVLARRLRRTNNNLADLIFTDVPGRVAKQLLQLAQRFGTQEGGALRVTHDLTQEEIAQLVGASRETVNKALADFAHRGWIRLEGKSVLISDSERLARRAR
The experiment in a line: fluorescence anisotropy; no cAMP; 75 mM KCl, 50 mM HEPES, 1 mM EDTA, pH 7.6; […]; temperature not stated. Conditions: protein: recombinant; tags: His-tag (pET-3a); chain copies: 2; label: fluorescein; blunt. On the technique in general: In fluorescence polarisation assays a small probe gives low polarisation when free and higher when bound to something large.

Data set [2] addresses T2, CRPMTB A61I (Mycobacterium tuberculosis, UniProt P9WMH3 1-224, A61I).
T2 sequence: T1 sequence with H61I
The data set is described as above. Particulars: protein: recombinant; tags: His-tag (pET-3a); chain copies: 2; label: fluorescein; blunt.

Data set [3] concerns the target T3, CRPMTB D63H (Mycobacterium tuberculosis, UniProt P9WMH3 1-224, D63H).
T3 sequence: T1 sequence with H61A, D63H
The data set is described as above. Conditions: protein: recombinant; tags: His-tag (pET-3a); chain copies: 2; label: fluorescein; blunt.

The target of data set [4] is T4, CRPMTB T70F (Mycobacterium tuberculosis, UniProt P9WMH3 1-224, T70F).
T4 sequence: T1 sequence with H61A, T70F
Described as above. Particulars: protein: recombinant; tags: His-tag (pET-3a); chain copies: 2; label: fluorescein; blunt.

Data set [5] concerns the target T1, CRPMTB A61H. In words: fluorescence anisotropy; 1 mM cAMP; 75 mM KCl, 50 mM HEPES, 1 mM EDTA, pH 7.6; […]; temperature not stated. Conditions: protein: recombinant; tags: His-tag (pET-3a); chain copies: 2; label: fluorescein; blunt.
Data set [6] deals with T2, CRPMTB A61I. The description is as above. Particulars: protein: recombinant; tags: His-tag (pET-3a); chain copies: 2; label: fluorescein; blunt.
For data set [7], the target named is T3, CRPMTB D63H. The description is as above. Particulars: protein: recombinant; tags: His-tag (pET-3a); chain copies: 2; label: fluorescein; blunt.
Data set [8] addresses T4, CRPMTB T70F. The data set is described as above. Particulars: protein: recombinant; tags: His-tag (pET-3a); chain copies: 2; label: fluorescein; blunt.
The target of data set [9] is T5, cAMP receptor protein from Mycobacterium tuberculosis (CRPMTB), wildtype (Mycobacterium tuberculosis), P9WMH3.
T5 chain: T1 sequence with H61A
In words: fluorescence polarisation; fluorescence anisotropy; CRPMTB titrated into 3 nM fluorescein-labelled 32-bp serC promoter DNA (full site); 75 mM KCl, 50 mM HEPES, 1 mM EDTA, pH 7.6; 0 mM cAMP; second transition ([CRP] > 100 nM) read as free CRPMTB joining the specific CRPMTB-DNA complex (high-order oligomers on DNA); apparent. Particulars: remark: other sources report otherwise.

Data set [10] has as its target T5, cAMP receptor protein from …. In words: fluorescence polarisation; fluorescence anisotropy, stoichiometric titration; CRPMTB titrated into 200 nM fluorescein-labelled 32-bp serC promoter DNA; 75 mM KCl, 50 mM HEPES, 1 mM EDTA, pH 7.6; 0 mM cAMP. Conditions: remark: other sources report otherwise.
Data set [11] has the same target. In words: SEC. Conditions: remark: other sources report otherwise.
Data set [12] shares this target. The experiment in a line: fluorescence polarisation; fluorescence anisotropy; CRPMTB titrated into 3 nM fluorescein-labelled 32-bp serC promoter DNA (full site); 75 mM KCl, 50 mM HEPES, 1 mM EDTA, pH 7.6; 1 mM cAMP; second transition read as high-order oligomers on DNA; apparent. Particulars: remark: other sources report otherwise.
The data set “SEC” concerns the molecule itself. In words: SEC. On the technique in general: Size exclusion chromatography separates by hydrodynamic size, large species first.

B1: serC32 full-site promoter (dsDNA)
DNA 1: GCGCGTAGTGTGAACAAGCTCACATGCAAGCC
DNA 2: GGCTTGCATGTGAGCTTGTTCACACTACGCGC
In the case of B1, the Ka with CRPMTB A61H [1] was 4.03 ± 0.08 10^8 M-1; in the data set with CRPMTB A61I [2], 2.71 ± 0.02 10^8 M-1; with CRPMTB D63H [3], 4.53 ± 0.04 10^8 M-1; in the data set with CRPMTB T70F [4] it was 4.42 ± 0.04 10^8 M-1; in the data set with CRPMTB A61H [5], 2.95 ± 0.05 10^8 M-1; in the data set with CRPMTB A61I [6], 3.57 ± 0.03 10^8 M-1. Moreover, the Ka with CRPMTB D63H [7] is 4.66 ± 0.06 10^8 M-1; with CRPMTB T70F [8], 2.75 ± 0.02 10^8 M-1.

B2: cAMP receptor protein from Mycobacterium tuberculosis (CRPMTB), wildtype, P9WMH3 (natural protein)
chain: T1 sequence with H61A
What is called stoichiometry N is a count of units in the complex or per binding partner. For the molecule B2, the apparent K (1/[CRP]) at the boundary of oligomer formation on DNA in [9] was 1.5e+07 M⁻¹; in data set [12], 6e+06 M⁻¹. For the same molecule, the stoichiometry N in data set [10] is more than 4; in data set [11], 2.

B3: CRPMTB A61H (natural protein)
chain: T1 sequence
Regarding B3, the “stoichiometry N” value in the data set “SEC” is 2.

B4: CRPMTB A61I (natural protein)
chain: T1 sequence with H61I
Consider B4, for which the “stoichiometry N” value in the data set “SEC” worked out at 2.

B5: CRPMTB T70F (natural protein)
chain: T1 sequence with H61A, T70F
Consider B5, for which, in “SEC”, the “stoichiometry N” value was determined as 2.

B6: CRPMTB D63H (natural protein)
chain: T1 sequence with H61A, D63H
In the case of B6, the “stoichiometry N” value in “SEC” is 2.
